The record followed here is paper PMC8299219 (Cell, 2021).

Substitutions are numbered along the chain they refer to.

The experiment addresses SARS-CoV-2 S ectodomain trimer, prefusion-stabilized, 2P variant (Wrapp et al., 2020) (SARS-CoV-2, Wuhan-Hu-1, UniProt P0DTC2, stabilised).

B1: C83B8 (antibody, V domains shown)
VH: QVQLVQSGAEVKKPGSSVKVSCKASGGTFSSYAISWVRQAPGQGLEWMGGIIPIFGTANYAQKFQGRVTITADESTSTAYMELSSLKSEDTAVYYCASTSYYDSSGYYLDYWGQGTLVTVSS
VL: EIVLTQSPATLSLSPGERATLSCRASQSVSSFLAWYQQKPGQAPRLLIYDASNRATGIPARFSGSGSGTDFTLTISSLEPEDFAVYYCQQRSNWPPKITFGQGTRLEIK
B1: the binding result is recorded as “binds”.

B2: C163D1 (antibody, V domains shown)
VH: B1 VH with K87R, S98R, T99V, Y101G, Y108S, L109P
VL: B1 VL with F32Y, K97R, I98L, Q102G, R105K, L106V
Take B2: the binding result is on record as “binds”.

B3: C102A1 (antibody, V domains shown)
VH: B1 VH with K23E, V68L, Y80F, K87R, S98R, S100Y, Y108S, L109H
VL: B1 VL with V29L, S92T, K97R
On to B3, for which the binding result is “binds”.

B4: C83A10 (antibody, V domains shown)
VH: B1 VH with N59K, M81L, K87R, S98R, T99V, S100G, Y101P, L109Y
VL: B1 VL with F32Y, K97M, I98Y, R105K
As for B4, the binding result is recorded as “binds”.

B5: C12D8 (antibody, V domains shown)
VH: EVQLVESGGGLVQPGGSLRLSCAASGFTFSSYWMSWVRQAPGKGLEWVANIKQDGSEKYYVDSVKGRFTISRDNAKNSLYLQMNSLRAEDTAVYYCARDDGLREPFDYWGQGTLVTVSS
VL: not shown
Regarding B5, the binding result was “binds”.

B6: C81H5 (antibody, V domains shown)
VH: QVQLVQSGAEVRKPGASVKVSCKVSEYTLTELSIHWVRQAPGKGLEWMGGFDPEDGETIYAQKFQGRVTMTEDTSTDTAYMELSSLRSEDTAVYYCATAPAYCPGGVCPRGWFDPWGQGTLVTVSS
VL: QSALTQPRSVSGSPGQSVTISCTGTSSDVGGYNYVSWYQQHPGKAPKLMIYDVSKRPSGVPDRFSGSKSGNTASLTISGLQAEDEADYYCCSYAGSYTYVFGTGTKVTVL
As to B6, the binding result is “binds”.

B7: C882C12 (antibody, V domains shown)
VH: QVQLVQSGAEVKKPGASVKVSCKASGYTFTGYYMHWVRQAPGQGLEWMGWINPNSDVTNYAQKFQGWVTMTRDTSISTAYMELSRLRSDDTAVYYCAREIPSSGYYSGGLDYWGQGTLVTVSS
VL: B6 VL with H41Y, S96T, Y99G, T103G, V107L
B7: the binding result is “binds”.

B8: C81G1 (antibody, V domains shown)
VH: QVQLVQSGAEVKKPGSSVKVSCKASGGTFSSYGITWVRQAPGQGLEWMGGIIPIFGTANYAQKFQGRVTITADESTSTAYMDLSSLRSEDTAVYYCAILGDDYNDVDYWGQGTLVTVSS
VL: not shown
On to B8, for which the binding result is on record as “binds”.

B9: C81D7 (antibody, V domains shown)
VH: not shown
VL: SYELTQPPSVSVAPGKTARITCGGNNIGSKSVHWYQQKPGQAPVLVVYDDSDRPSGIPERFSGSNSGNTATLTISRVEAGDEADYYCQVWDSSSDSWVFGGGTKLTVL
In the case of B9, the binding result is given as “binds”.

B10: C81E4 (antibody, V domains shown)
VH: QVQLVESGGGVVQPGRSLRLSCEASGFTFSNYAMHWVRQAPGKGLEWVAVISYDGSNKYYADSVKGRFTISRDNSKNTLYLQMNSLRAEDTAVYYCASCGITMVQGAHPDAFDIWGQGTMVTVSS
VL: B9 VL with S29T, S92R, S96H, W97V, V98L
With B10, the binding result was “binds”.

B11: C81E3 (antibody, V domains shown)
VH: QVQLVESGGGVVQPGRSLRLSCAASGFTFSSYAMHWVRQAPGKGLEWVAVISYDGSNKYYADSVKGRFTISRDNSKNTLYLQMNSLRAEDTAVYYCARVSSMDVLRYFDPLDVWGNGTTVTVSS
VL: SYELTQPPSVSVSPGQTARITCSGDALPKQYAYWYQQKPGQAPVLVIYKDSERPSGIPERFSGSSSGTTVTLTISGVQAEDEADYYCQSADSSGTYHVVFGGGTKLTVL
For the molecule B11, the binding result is “binds”.

B12: C81H2 (antibody, V domains shown)
VH: QVQLVQSGSELKKPGASVKVSCKASGYTFTSYAMNWVRQAPGQGLEWMGWINTNTGNPTYAQDFTGRFVFSLDTSVSTAYLQISSLKAEDTAMYYCARGSMITFGGILEPVLQFDYWGQGTLVTVSS
VL: not shown
For the molecule B12, the binding result is listed as “binds”.

B13: C81H7 (antibody, V domains shown)
VH: QVQLVESGGGVVQPGRSLRLSCAASGFTFSSYGMHWVRQAPGKGLEWVAVIWYDGSNKYYAESVKGRFTISRDNSKNTLYLQMNSLRAEDTAVYYCARPPSVVRHDAFDIWGQGTMVTVSS
VL: SYELTQPPSVSVSPGQTARITCSGDALPKKYAYWYQQKSGQAPVLVIYEDSKRPSGIPERFSGSSSGTMATLTISGAQVEDEADYYCYSTDSSGNHGVFGGGTKLTVL
Take B13: the binding result is “binds”.

B14: C30A11 (antibody, V domains shown)
VH: QVQLVQSGAEVKKPGASVKVSCKASGYTFTGYYIHWVRQAPGQGLEWMGWINPNSGVTNYAQKFQGWVTMTRDTSISTAYMELSRLKSDDTAVYYCAREMQQLEGYYYYAMDVWGQGTTVTVSS
VL: not shown
B14: the binding result is “binds”.

B15: C41C3 (antibody, V domains shown)
VH: QVQLQESGPGLVKPSETLSLTCTVSGGSISSYYWSWIRQPPGKGLEWIGYIYYSGSTNYNPSLKSRVTISVDTSKNQFSLKLSSVTAADTAVYYCARAAEYYDFWSGYYRNWFDPWGQGTLVTVSS
VL: not shown
As to B15, the binding result is recorded as “binds”.

B16: C81B2 (antibody, V domains shown)
VH: QVQLVQSGAEVKKPGASVKVSCKVSGYTLIELSMHWVRQAPGKGLEWMGGFDPEDGETIYAQKFQGRVTMTEDTSTDTAYMELSSLRSEDTAVYYCATGPSIAVRGWFDPWGQGTLVTVSS
VL: QSVLTQPPSVSAAPGQKVTISCSGSSSNIGNNYVSWYQQLPGTAPKLLIYENNKRPSGIPDRFSGSKSGTSATLGITGLQTGDEADYYCGTWDSSLSAGGVFGGGTKLTVL
On to B16, for which the binding result is “binds”.

B17: C81G10 (antibody, V domains shown)
VH: B16 VH with I30T, M34I, G99T, P100T, S101V, I102L, V104A, R105A, G106S
VL: QSALTQPASVSGSPGQSITISCTGTNSDVGSYNLVSWYQQHPGKAPKLMIYEGSKRPSGVSNRFSGSKSGNTASLTISGLQAEDEADYYCCSYAGSGTVVFGGGTKLTVL
As to B17, the binding result is on record as “binds”.

B18: C81C6 (antibody, V domains shown)
VH: B16 VH with I30T, M70V, G99S, S101A, V104A, R105T, F108L
VL: QSALTQPASVSGSPGQSITISCTGTSSDVGSYNLVSWYQQHPGKAPKLMIYEGNKRPSGVSNRFSGSKSGNTASLTISGLQAEDEADYYCCSYAGSSTHWVFGGGTKLTVL
Regarding B18, the binding result was “binds”.

B19: G32A12 (antibody, V domains shown)
VH: QVQLVQSGAEVKKPGASVKVSCKASGYTFTSYYMHWVRQAPGQGLEWMGIINPSGGSTSYAQKFQGRVTMTRDTSTSTVYMELSSLRSEDTAVYYCARDPTMTTVTTLDDYYYYYGMDVWGQGTTVTVSS
VL: not shown
Turning to B19, the binding result is given as “binds”.

B20: C63D4 (antibody, V domains shown)
VH: EVQLVESGGGLVQPGGSLRLSCAASGFTFSTYEMNWVRQAPGKGLEWVSYISSSGSTISYADSVKGRFTISRDNAKNSLYLQMNSLRAEDTAVYYCARDSPHYDYIWGSYRLRGAFDIWGQGTMVTVSS
VL: QSALTQPPSASGSPGQSVTISCTGTSSDVGGYNYVSWYQQHPGKAPKLMIYEVSKRPSGVPDRFSGSKSGNTASLTVSGLQAEDEADYYCSSYTGSNTLYVFGTGTKVTVL
Turning to B20, the binding result is “binds”.

B21: C83B5 (antibody, V domains shown)
VH: EVQLVQSGAEVKKPGESLRISCKGSGYSFTSYWISWVRQMPGKGLEWMGRIDPSDSYTNYSPSFQGHVTISADKSISTAYLQWSSLKASDTAMYYCARQNYYDSSGHPDAFDIWGQGTMVTVSS
VL: not shown
Consider B21, for which the binding result was “binds”.

B22: G32M5 (antibody, V domains shown)
VH: EVQLLESGGGLVQPGGSLRLSCAASGFTFSSYAMSWVRQAPGKGLEWVSGISASGGSTYYADSVKGRFTISRDNSKNTLYLQMNSLRAEDTAVYYCAKDGGPYSKGPYHYYGMDVWGQGTTVTVSS
VL: QSVLTQPPSVSAAPGQKVTISCSGSSSNIGNNYVSWYQQLPGTAPKLLIYDNNKRPSGIPDRFSGSKSGTSATLGITGLQTGDEADYYCGTWDSSLSAYVFGTGTKVTVL
As for B22, the binding result was “binds”.

B23: C18D5 (antibody, V domains shown)
VH: QVQLVQSGAEVKTPGASVKVSCKASGFTFTNYDLNWVRQAPGQGLEWMGWMNPKSGDTRSAQRFQGRVTMTRDTSISTAYMEMNTLRSEDTAVYYCARGRGDYSDDDFPALYLWGQGTLVTVSS
VL: not shown
B23: the binding result is given as “binds”.

B24: C83A8 (antibody, V domains shown)
VH: QVQLVQSGAEVKKPGSSVKISCKASGGTFSSNAISWVRQAPGQGLEWMGGIIPILTTTNYAERLQGRVTITADESTSTAYMELSSLRSEDTAVYYCASQGRKSCITVFGVVDLLCYSNGMDVWGQGTTVTVSS
VL: QSALTQPASVSGSPGQSITISCTGTSSDVGGYKYVSWYQHHPGKAPKLMIYDVSNRPSGVSNRFSGSKSGNTASLTISGLQAEDEAEYYCSSFTTSSTLVVFGGGTKLTVL
B24: the binding result is listed as “binds”.

B25: G32L6 (antibody, V domains shown)
VH: QVQLVQSGAEVKKPGASVKVSCKVSGYTLTELSMHWVRQAPGKGLEWMGGFDPEDGETIYAQKFQGRVTMTEDTSTDTAYMELSTLRSEDTAVYYCATAPAVAGTFENYYYYYGLDVWGQGTTVTVSS
VL: not shown
In the case of B25, the binding result is given as “binds”.

B26: C12A8 (antibody, V domains shown)
VH: QVQLVQSGAEVKKPGASVKVSCKVSGYTLTELSMHWVRQAPGKGLEWMGGFDPEDGETIYAQKFQGRVTMTEDTSTDTAYMELSSLRSEDTAVYYCATVSWPNYYDGTLYYFDYWGQGTLVTVSS
VL: DIQMTQSPSSLSASVGDRVTITCRASQGIRNDLGWYQQKPGKAPKRLIYAASSLQSGVPSRFRGSGSGTEFTLTISSLQPEDFATYYCLQHYSYPFTFGPGTKVDIK
As to B26, the binding result is “binds”.
